For this experiment, the target named is T1, hUHRF1 tandem tudor domain, 10xHIS-TEV-TTD (aa 126-285) (human, UniProt Q96T88-1 126-285).
T1 sequence (looked up): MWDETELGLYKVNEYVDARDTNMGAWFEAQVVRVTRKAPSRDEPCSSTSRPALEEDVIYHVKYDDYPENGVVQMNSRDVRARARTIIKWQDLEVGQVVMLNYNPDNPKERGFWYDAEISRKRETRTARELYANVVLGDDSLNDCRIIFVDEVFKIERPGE
The experiment can be described thus: MST.

B1: hUHRF1 Linker 4 (aa 605-675)-6xHIS (domain or fragment, human, UniProt Q96T88-1 605-675, looked up)
chain: MQYPEGYLEALANREREKENSKREEEEQQEGGFASPRTGKGKWKRKSAGGGPSRAGSPRRTSKKTKVEPYS
Take B1: the binding result was “binds”.

The values above are taken from paper doi:10.1101/2021.08.04.455045 (bioRxiv, 2021).
